Test [1] addresses T1, monkey IL-17A (Macaca mulatta) (Macaca mulatta, UniProt F6T3G5 24-155). The test is described as follows: BLI (OctetRed 96), BCD085 on AR2G sensors, monkey IL-17A as analyte, row 'Concentration (nm)' 34,4; 1:1 model; R^2 0,964905.
Protocol: (§1) The affinity of BCD085 binding with human, monkey and rat IL-17A was analyzed on OctetRed 96 (ForteBio). BCD085 was non-specifically immobilized on the surface of amine reactive second-generation sensors (AR2G) according to the standard protocol described in the manufacturer's manual. The test was conducted at a temperature of 30° C. and using PBS with 0.1% Tween-20 and 0.1% BSA as a working buffer.
(§2) Binding curves (after subtracting a reference signal) were analyzed using Octet Data Analysis software (Version 7.0) in accordance with the standard procedure and using 1:1 interaction model.
Test [2] has as its target T1, monkey IL-17A (Macaca mulatta). The test is described as follows: BLI (OctetRed 96), BCD085 on AR2G sensors, monkey IL-17A as analyte, row 'Concentration (nm)' 68,7; 1:1 model; R^2 0,956946.
Protocol: as §1, §2
The target in test [3] is T2, human IL-17A (human, UniProt Q16552 20-155, limits assumed).
T2 construct: also called human recombinant IL-17
T2 sequence (Q16552 20-155 limits assumed): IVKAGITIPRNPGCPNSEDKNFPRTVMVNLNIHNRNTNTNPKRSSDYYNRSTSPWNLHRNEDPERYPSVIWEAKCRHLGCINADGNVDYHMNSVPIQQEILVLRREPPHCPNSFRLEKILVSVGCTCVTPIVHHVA
The test is described as follows: BLI (OctetRed 96), BCD085 on AR2G sensors, human IL-17A as analyte, row 'Concentration (nm)' 34,3; 1:1 model; R^2 0,937248.
Protocol: as §1, §2

The target of test [4] is T2, human IL-17A. The experiment in a line: BLI, OctetRed 96, BCD085 immobilized on AR2G sensors; human against monkey IL-17A. On the technique in general: Biolayer interferometry detects binding as a change in optical thickness at a sensor tip.
Protocol: as §1, §2
In test [5] the target is T2, human IL-17A. The experiment in a line: cell-based or functional assay.
For another test, the target named is T3, rat IL-17A (rat, UniProt Q61453 18-150, limits assumed).
T3 sequence (looked up): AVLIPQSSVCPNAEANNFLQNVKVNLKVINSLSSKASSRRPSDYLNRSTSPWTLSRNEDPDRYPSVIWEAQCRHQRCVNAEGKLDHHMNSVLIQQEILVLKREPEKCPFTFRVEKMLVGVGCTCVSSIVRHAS
The experiment in a line: BLI, OctetRed 96, BCD085 immobilized on AR2G sensors, IL-17A as analyte.

In test [6] the target is T2, human IL-17A. The experiment in a line: BLI (OctetRed 96), BCD085 on AR2G sensors, human IL-17A as analyte, row 'Concentration (nm)' 68,6; 1:1 model; R^2 0,973327.
Protocol: as §1, §2
Test [7] addresses T1, monkey IL-17A (Macaca mulatta). The experiment in a line: BLI (OctetRed 96), BCD085 on AR2G sensors, monkey IL-17A as analyte, row 'Concentration (nm)' 17,2; 1:1 model; R^2 0,983707.
Protocol: as §1, §2

T1 sequence (F6T3G5 entry or part of it): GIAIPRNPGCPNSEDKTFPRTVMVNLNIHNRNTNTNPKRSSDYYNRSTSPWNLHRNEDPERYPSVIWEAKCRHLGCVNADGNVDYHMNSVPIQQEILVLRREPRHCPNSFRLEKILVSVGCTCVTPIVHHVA
Protocol for rat IL-17A: as §1, §2

B1: BCD085 monoclonal anti-IL-17A antibody (antibody, V domains shown)
VH: QVQLVQSGGGLVQPGGSLRLSCAADGFTFSNYAMSWVRQAPGKGLEWVSRIEGGIGSSTYAVDSVKDRFTISRDDAKNTLYLQMSSLKTEDTAVYYCAVNYYGMYYWGQGTLVTVSS
VL: QSVLTQPPSVSVAPGKTVTISCTGTSEDVGFGNYVSWYQHLPGTAPKLLIYRVNTRPSGVPDRFSGSQSGNTASLTISGLQAEDEADYYCSSYKAGGTYVFGGGTKLTVLG
notes: Full-length antibody produced in CHO-S cells; also called the candidate; monoclonal anti-IL-17A antibody of the invention
Turning to B1, the Kd is 4.15 nM in test [1]; 5.97 nM in test [2]; less than 0.001 nM with human IL-17A [3]; less than 0.001 nM with human IL-17A [6]; 2.22 nM in test [7]. In the test with human IL-17A [4], the “fold stronger affinity than to monkey IL-17A” value was found to be 1000 fold. Besides, in the test with human IL-17A [5], the “IC50, blocking of IL-17-induced IL-6 production by human HT1080 cells (40 ng/ml IL-17 + 20 ng/ml TNF-alpha), IL-6 measured by ELISA” value stood at 0.04 nM. The binding result with rat IL-17A is on record as “no binding (tested: 126 nM (highest concentration titrated))”.

One may read the Kd as the concentration at which binding is half-saturated.

Values taken from patent US20170081401A1 (CLOSED JOINT STOCK COMPANY BIOCAD, published 2017).
